According to the supplement of paper PMC11811203:

B1: THAP1; numbered along this chain (parent)
chain: MVQSCSAYGCKNRYDKDKPVSFHKFPLTRPSLCKEWEAAVRRKNFKPTKYSSICSEHFTPDCFKRECNNKLLKENAVPTIFLCTEPHDKKEDLLEPQEQLPPPPLPPPVSQVDAAIGLLMPPLQTPVNLSVFCDHNYTVEDTMHQRKRIHQLEQQVEKLRKKLKTAQQRCRRQERQLEKLKEVVHFQKEKDDVSERGYVILPNDYFEIVEVPA

Variants of: B1
Test: THAP1 transcriptional activity (GFP+/GFP- enrichment relative to wild-type constructs) (ratio to WT); higher = more THAP1 activity (PSMB5 reporter activation)
Conditions: with PSMB5 promoter-GFP reporter
Procedure, shortened: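 A site-saturation library of human THAP1 (residues 2–213, each changed to all 20 amino acids) was transduced by lentivirus at MOI ~0.3, in duplicate, into THAP1-knockout HEK-293T cells carrying mClover3 knocked in at endogenous PSMB5. After five days, BFP+ cells were sorted into GFP-dim and GFP-bright bins, and variants were counted by Illumina sequencing of genomic DNA amplicons. Activity is the replicate-mean bright/dim read fold change divided by the mean of wild-type synonymous constructs.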

Variant	THAP1 transcriptional activity
MVQSCSAYGCKNRYDKDKPVSFHKFPLTRPSLCKEWEAAVRRKNFKPTKYSSICSEHFTPDCFKRECNNKLLKENAVPTIFLCTEPHDKKEDLLEPQEQLPPPPLPPPVSQVDAAIGLLMPPRQTPVNLSVFCDHNYTVEDTMHQRKRIHQLEQQVEKLRKKLKTAQQRCRRQERQLEKLKEVVHFQKEKDDVSERGYVILPNDYFEIVEVPA [L123R]	1.45
MVQSCSAYGCKNRYDKDKPVSFHKFPLTRPSLCKEWEAAVRRKNFKPTKYSSICSEHFTPDCFKRECNNKLLKENAVPTIFLCTEPHDKKEDLLEPQEQLPPPPLPPPVSQVDAAIGLLMPPAQTPVNLSVFCDHNYTVEDTMHQRKRIHQLEQQVEKLRKKLKTAQQRCRRQERQLEKLKEVVHFQKEKDDVSERGYVILPNDYFEIVEVPA [L123A]	0.859
MVQSCSAYGCKNRYDKDKPVSFHKFPLTRPSLCKEWEAAVRRKNFKPTKYSSICSEHFTPDCFKRECNNKLLKENAVPTIFLCTEPHDKKEDLLEPQEQLPPPPLPPPVSQVDAAIGLLMPPFQTPVNLSVFCDHNYTVEDTMHQRKRIHQLEQQVEKLRKKLKTAQQRCRRQERQLEKLKEVVHFQKEKDDVSERGYVILPNDYFEIVEVPA [L123F]	0.608
MVQSCSAYGCKNRYDKDKPVSFHKFPLTRPSLCKEWEAAVRRKNFKPTKYSSICSEHFTPDCFKRECNNKLLKENAVPTIFLCTEPHDKKEDLLEPQEQLPPPPLPPPVSQVDAAIGLLMPPTQTPVNLSVFCDHNYTVEDTMHQRKRIHQLEQQVEKLRKKLKTAQQRCRRQERQLEKLKEVVHFQKEKDDVSERGYVILPNDYFEIVEVPA [L123T]	1.44
MVQSCSAYGCKNRYDKDKPVSFHKFPLTRPSLCKEWEAAVRRKNFKPTKYSSICSEHFTPDCFKRECNNKLLKENAVPTIFLCTEPHDKKEDLLEPQEQLPPPPLPPPVSQVDAAIGLLMPPNQTPVNLSVFCDHNYTVEDTMHQRKRIHQLEQQVEKLRKKLKTAQQRCRRQERQLEKLKEVVHFQKEKDDVSERGYVILPNDYFEIVEVPA [L123N]	1.54
MVQSCSAYGCKNRYDKDKPVSFHKFPLTRPSLCKEWEAAVRRKNFKPTKYSSICSEHFTPDCFKRECNNKLLKENAVPTIFLCTEPHDKKEDLLEPQEQLPPPPLPPPVSQVDAAIGLLMPPCQTPVNLSVFCDHNYTVEDTMHQRKRIHQLEQQVEKLRKKLKTAQQRCRRQERQLEKLKEVVHFQKEKDDVSERGYVILPNDYFEIVEVPA [L123C]	0.584
MVQSCSAYGCKNRYDKDKPVSFHKFPLTRPSLCKEWEAAVRRKNFKPTKYSSICSEHFTPDCFKRECNNKLLKENAVPTIFLCTEPHDKKEDLLEPQEQLPPPPLPPPVSQVDAAIGLLMPPSQTPVNLSVFCDHNYTVEDTMHQRKRIHQLEQQVEKLRKKLKTAQQRCRRQERQLEKLKEVVHFQKEKDDVSERGYVILPNDYFEIVEVPA [L123S]	0.637
MVQSCSAYGCKNRYDKDKPVSFHKFPLTRPSLCKEWEAAVRRKNFKPTKYSSICSEHFTPDCFKRECNNKLLKENAVPTIFLCTEPHDKKEDLLEPQEQLPPPPLPPPVSQVDAAIGLLMPPEQTPVNLSVFCDHNYTVEDTMHQRKRIHQLEQQVEKLRKKLKTAQQRCRRQERQLEKLKEVVHFQKEKDDVSERGYVILPNDYFEIVEVPA [L123E]	1.45
MVQSCSAYGCKNRYDKDKPVSFHKFPLTRPSLCKEWEAAVRRKNFKPTKYSSICSEHFTPDCFKRECNNKLLKENAVPTIFLCTEPHDKKEDLLEPQEQLPPPPLPPPVSQVDAAIGLLMPPMQTPVNLSVFCDHNYTVEDTMHQRKRIHQLEQQVEKLRKKLKTAQQRCRRQERQLEKLKEVVHFQKEKDDVSERGYVILPNDYFEIVEVPA [L123M]	0.859
MVQSCSAYGCKNRYDKDKPVSFHKFPLTRPSLCKEWEAAVRRKNFKPTKYSSICSEHFTPDCFKRECNNKLLKENAVPTIFLCTEPHDKKEDLLEPQEQLPPPPLPPPVSQVDAAIGLLMPPPQTPVNLSVFCDHNYTVEDTMHQRKRIHQLEQQVEKLRKKLKTAQQRCRRQERQLEKLKEVVHFQKEKDDVSERGYVILPNDYFEIVEVPA [L123P]	1.05
MVQSCSAYGCKNRYDKDKPVSFHKFPLTRPSLCKEWEAAVRRKNFKPTKYSSICSEHFTPDCFKRECNNKLLKENAVPTIFLCTEPHDKKEDLLEPQEQLPPPPLPPPVSQVDAAIGLLMPPQQTPVNLSVFCDHNYTVEDTMHQRKRIHQLEQQVEKLRKKLKTAQQRCRRQERQLEKLKEVVHFQKEKDDVSERGYVILPNDYFEIVEVPA [L123Q]	0.814
MVQSCSAYGCKNRYDKDKPVSFHKFPLTRPSLCKEWEAAVRRKNFKPTKYSSICSEHFTPDCFKRECNNKLLKENAVPTIFLCTEPHDKKEDLLEPQEQLPPPPLPPPVSQVDAAIGLLMPPKQTPVNLSVFCDHNYTVEDTMHQRKRIHQLEQQVEKLRKKLKTAQQRCRRQERQLEKLKEVVHFQKEKDDVSERGYVILPNDYFEIVEVPA [L123K]	0.809
MVQSCSAYGCKNRYDKDKPVSFHKFPLTRPSLCKEWEAAVRRKNFKPTKYSSICSEHFTPDCFKRECNNKLLKENAVPTIFLCTEPHDKKEDLLEPQEQLPPPPLPPPVSQVDAAIGLLMPPGQTPVNLSVFCDHNYTVEDTMHQRKRIHQLEQQVEKLRKKLKTAQQRCRRQERQLEKLKEVVHFQKEKDDVSERGYVILPNDYFEIVEVPA [L123G]	0.957
MVQSCSAYGCKNRYDKDKPVSFHKFPLTRPSLCKEWEAAVRRKNFKPTKYSSICSEHFTPDCFKRECNNKLLKENAVPTIFLCTEPHDKKEDLLEPQEQLPPPPLPPPVSQVDAAIGLLMPPDQTPVNLSVFCDHNYTVEDTMHQRKRIHQLEQQVEKLRKKLKTAQQRCRRQERQLEKLKEVVHFQKEKDDVSERGYVILPNDYFEIVEVPA [L123D]	1.45
MVQSCSAYGCKNRYDKDKPVSFHKFPLTRPSLCKEWEAAVRRKNFKPTKYSSICSEHFTPDCFKRECNNKLLKENAVPTIFLCTEPHDKKEDLLEPQEQLPPPPLPPPVSQVDAAIGLLMPPHQTPVNLSVFCDHNYTVEDTMHQRKRIHQLEQQVEKLRKKLKTAQQRCRRQERQLEKLKEVVHFQKEKDDVSERGYVILPNDYFEIVEVPA [L123H]	1.24
MVQSCSAYGCKNRYDKDKPVSFHKFPLTRPSLCKEWEAAVRRKNFKPTKYSSICSEHFTPDCFKRECNNKLLKENAVPTIFLCTEPHDKKEDLLEPQEQLPPPPLPPPVSQVDAAIGLLMPPIQTPVNLSVFCDHNYTVEDTMHQRKRIHQLEQQVEKLRKKLKTAQQRCRRQERQLEKLKEVVHFQKEKDDVSERGYVILPNDYFEIVEVPA [L123I]	0.913
MVQSCSAYGCKNRYDKDKPVSFHKFPLTRPSLCKEWEAAVRRKNFKPTKYSSICSEHFTPDCFKRECNNKLLKENAVPTIFLCTEPHDKKEDLLEPQEQLPPPPLPPPVSQVDAAIGLLMPLLQTPVNLSVFCDHNYTVEDTMHQRKRIHQLEQQVEKLRKKLKTAQQRCRRQERQLEKLKEVVHFQKEKDDVSERGYVILPNDYFEIVEVPA [P122L]	0.692
MVQSCSAYGCKNRYDKDKPVSFHKFPLTRPSLCKEWEAAVRRKNFKPTKYSSICSEHFTPDCFKRECNNKLLKENAVPTIFLCTEPHDKKEDLLEPQEQLPPPPLPPPVSQVDAAIGLLMPYLQTPVNLSVFCDHNYTVEDTMHQRKRIHQLEQQVEKLRKKLKTAQQRCRRQERQLEKLKEVVHFQKEKDDVSERGYVILPNDYFEIVEVPA [P122Y]	0.254
MVQSCSAYGCKNRYDKDKPVSFHKFPLTRPSLCKEWEAAVRRKNFKPTKYSSICSEHFTPDCFKRECNNKLLKENAVPTIFLCTEPHDKKEDLLEPQEQLPPPPLPPPVSQVDAAIGLLMPKLQTPVNLSVFCDHNYTVEDTMHQRKRIHQLEQQVEKLRKKLKTAQQRCRRQERQLEKLKEVVHFQKEKDDVSERGYVILPNDYFEIVEVPA [P122K]	0.728
MVQSCSAYGCKNRYDKDKPVSFHKFPLTRPSLCKEWEAAVRRKNFKPTKYSSICSEHFTPDCFKRECNNKLLKENAVPTIFLCTEPHDKKEDLLEPQEQLPPPPLPPPVSQVDAAIGLLMPRLQTPVNLSVFCDHNYTVEDTMHQRKRIHQLEQQVEKLRKKLKTAQQRCRRQERQLEKLKEVVHFQKEKDDVSERGYVILPNDYFEIVEVPA [P122R]	0.328
MVQSCSAYGCKNRYDKDKPVSFHKFPLTRPSLCKEWEAAVRRKNFKPTKYSSICSEHFTPDCFKRECNNKLLKENAVPTIFLCTEPHDKKEDLLEPQEQLPPPPLPPPVSQVDAAIGLLMPTLQTPVNLSVFCDHNYTVEDTMHQRKRIHQLEQQVEKLRKKLKTAQQRCRRQERQLEKLKEVVHFQKEKDDVSERGYVILPNDYFEIVEVPA [P122T]	0.614
MVQSCSAYGCKNRYDKDKPVSFHKFPLTRPSLCKEWEAAVRRKNFKPTKYSSICSEHFTPDCFKRECNNKLLKENAVPTIFLCTEPHDKKEDLLEPQEQLPPPPLPPPVSQVDAAIGLLMPVLQTPVNLSVFCDHNYTVEDTMHQRKRIHQLEQQVEKLRKKLKTAQQRCRRQERQLEKLKEVVHFQKEKDDVSERGYVILPNDYFEIVEVPA [P122V]	0.214
MVQSCSAYGCKNRYDKDKPVSFHKFPLTRPSLCKEWEAAVRRKNFKPTKYSSICSEHFTPDCFKRECNNKLLKENAVPTIFLCTEPHDKKEDLLEPQEQLPPPPLPPPVSQVDAAIGLLMPILQTPVNLSVFCDHNYTVEDTMHQRKRIHQLEQQVEKLRKKLKTAQQRCRRQERQLEKLKEVVHFQKEKDDVSERGYVILPNDYFEIVEVPA [P122I]	0.39
MVQSCSAYGCKNRYDKDKPVSFHKFPLTRPSLCKEWEAAVRRKNFKPTKYSSICSEHFTPDCFKRECNNKLLKENAVPTIFLCTEPHDKKEDLLEPQEQLPPPPLPPPVSQVDAAIGLLMPMLQTPVNLSVFCDHNYTVEDTMHQRKRIHQLEQQVEKLRKKLKTAQQRCRRQERQLEKLKEVVHFQKEKDDVSERGYVILPNDYFEIVEVPA [P122M]	0.226
MVQSCSAYGCKNRYDKDKPVSFHKFPLTRPSLCKEWEAAVRRKNFKPTKYSSICSEHFTPDCFKRECNNKLLKENAVPTIFLCTEPHDKKEDLLEPQEQLPPPPLPPPVSQVDAAIGLLMPHLQTPVNLSVFCDHNYTVEDTMHQRKRIHQLEQQVEKLRKKLKTAQQRCRRQERQLEKLKEVVHFQKEKDDVSERGYVILPNDYFEIVEVPA [P122H]	0.355
MVQSCSAYGCKNRYDKDKPVSFHKFPLTRPSLCKEWEAAVRRKNFKPTKYSSICSEHFTPDCFKRECNNKLLKENAVPTIFLCTEPHDKKEDLLEPQEQLPPPPLPPPVSQVDAAIGLLMPQLQTPVNLSVFCDHNYTVEDTMHQRKRIHQLEQQVEKLRKKLKTAQQRCRRQERQLEKLKEVVHFQKEKDDVSERGYVILPNDYFEIVEVPA [P122Q]	0.769
MVQSCSAYGCKNRYDKDKPVSFHKFPLTRPSLCKEWEAAVRRKNFKPTKYSSICSEHFTPDCFKRECNNKLLKENAVPTIFLCTEPHDKKEDLLEPQEQLPPPPLPPPVSQVDAAIGLLMPSLQTPVNLSVFCDHNYTVEDTMHQRKRIHQLEQQVEKLRKKLKTAQQRCRRQERQLEKLKEVVHFQKEKDDVSERGYVILPNDYFEIVEVPA [P122S]	0.627
MVQSCSAYGCKNRYDKDKPVSFHKFPLTRPSLCKEWEAAVRRKNFKPTKYSSICSEHFTPDCFKRECNNKLLKENAVPTIFLCTEPHDKKEDLLEPQEQLPPPPLPPPVSQVDAAIGLLMPWLQTPVNLSVFCDHNYTVEDTMHQRKRIHQLEQQVEKLRKKLKTAQQRCRRQERQLEKLKEVVHFQKEKDDVSERGYVILPNDYFEIVEVPA [P122W]	0.159
